These results are taken from patent US20230192902A1 (published 2023).

Experiment [1] has as its target T1, human ABCG2 (UniProt Q9UNQ0 1-655).
T1 chain: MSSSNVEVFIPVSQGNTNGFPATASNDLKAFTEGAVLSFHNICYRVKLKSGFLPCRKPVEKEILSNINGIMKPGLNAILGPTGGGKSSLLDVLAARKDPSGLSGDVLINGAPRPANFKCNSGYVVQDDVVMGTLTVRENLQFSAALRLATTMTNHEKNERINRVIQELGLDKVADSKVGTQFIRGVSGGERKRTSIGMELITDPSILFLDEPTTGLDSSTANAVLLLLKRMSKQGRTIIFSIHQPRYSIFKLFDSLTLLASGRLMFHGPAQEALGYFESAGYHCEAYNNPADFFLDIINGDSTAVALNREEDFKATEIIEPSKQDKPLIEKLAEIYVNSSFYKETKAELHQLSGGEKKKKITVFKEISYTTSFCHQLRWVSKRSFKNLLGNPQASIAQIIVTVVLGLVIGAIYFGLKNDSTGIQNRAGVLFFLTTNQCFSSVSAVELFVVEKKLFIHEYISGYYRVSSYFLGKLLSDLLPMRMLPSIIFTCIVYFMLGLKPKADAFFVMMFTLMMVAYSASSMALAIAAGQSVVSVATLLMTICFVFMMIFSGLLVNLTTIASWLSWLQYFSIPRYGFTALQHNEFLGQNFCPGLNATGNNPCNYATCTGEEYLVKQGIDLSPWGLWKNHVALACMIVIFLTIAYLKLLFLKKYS
Description: flow cytometry cell binding; 293T-G2OX cells.

Experiment [2] has as its target T1, human ABCG2. Description: flow cytometry cell binding; 293T-G2OX cells.
Another experiment has as its target human PD-L1 (human, UniProt Q9NZQ7 19-290). The experiment is described as follows: flow cytometry cell binding; 293T-KT9OX cells.
Another experiment addresses 293T-G2KT9OX. Description: flow cytometry cell binding; cells expressing both ABCG2 and PD-L1.

Residue numbers refer to the chain shown, from its start. Read-outs that look alike come from different tables or passages of the source.

Sequence of human PD-L1 (Q9NZQ7 19-290): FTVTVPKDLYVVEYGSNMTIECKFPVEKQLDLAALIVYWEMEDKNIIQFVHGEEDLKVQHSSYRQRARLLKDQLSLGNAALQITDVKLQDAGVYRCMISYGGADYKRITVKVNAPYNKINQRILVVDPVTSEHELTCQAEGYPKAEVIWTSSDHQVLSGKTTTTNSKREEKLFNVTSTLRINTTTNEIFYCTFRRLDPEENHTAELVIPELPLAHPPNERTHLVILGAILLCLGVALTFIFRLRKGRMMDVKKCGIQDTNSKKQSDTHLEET

B1: anti-ABCG2 antibody 5D3 (antibody, V domains shown)
VH: QVQLQESGPGLVKPSQSLSLTCTVTGFSITSDYAWNWIRQFPGKKLEWMGYINFDGGTTYNPSLRGRISITRDTSKNQFFLQLRSVTPEDTATYYCATFYGAKGTLDYWGQGTSVTVSS
VL: DIVLTQSPSSFSVSLGDRVTISCKASGYILNRLAWYQQKPGNAPRLLISGATSLETGFPSRFSGTGSGKDYTLSISSLQTEDVGTYYCQQYWSTPWTFGGGTKLEIR
For the molecule B1, in the experiment with human ABCG2 [1], the EC50 was determined as 1.5 nM.

B2: 5D3hVH-v1DD KT9KK 5D3hVL-v1 (bispecific antibody, V domains shown)
VH 1: EVQLQESGPGLVKPSETLSLTCTVSGFSITSDYAWNWIRQPPGKGLEWMGYINFDGGTTYNPSLRGRITISRDTSKNQFSLKLSSVTAADTAVYYCATFYGAKGTLDYWGQGTLVTVSS
VH 2: not shown
VL: DIQLTQSPSSLSASVGDRVTITCKASGYILNRLAWYQQKPGKAPKLLISGATSLETGFPSRFSGSGSGKDYTLTISSLQPEDFATYYCQQYWSTPWTFGGGTKLEIK
For the molecule B2, the EC50 with human ABCG2 [2] was found to be 7.1 nM; with human PD-L1 it was 4.18 nM.

B3: 5D3hVHv1DD KT9KK 5D3hVKv1 (bispecific antibody, V domains shown)
VH 1: B2 VH 1
VH 2: not shown
VL: B2 VL
On to B3, for which a half-maximal response with 293T-G2KT9OX (EC50) required 10.8 nM.

B4: 5D3hVHv2 5D3hVKv1 (antibody, V domains shown)
VH: B2 VH 1 with M49I, I68V
VL: B2 VL
For B4, in the experiment with human ABCG2 [1], a half-maximal effect (EC50) was put at 2.2 nM.

B5: 5D3hVHv1 5D3hVKv1 (antibody, V domains shown)
VH: B2 VH 1
VL: B2 VL
In turn, B5 yielded an EC50 in the experiment with human ABCG2 [1] of 2.2 nM.
